Experimental data reported in publication PMC10718530.

Legend:
[1] = biological target: MreB from Geobacillus stearothermophilus (MreB^Gs), wild type, 6-histidine-tagged (Geobacillus stearothermophilus ATCC 7953); assay: negative-stain electron microscopy; MreB 1.34 µM (0.27-1.34 µM in the concentration series) under a monolayer of E. coli total lipid extract; 20 mM Tris pH 7, 100 mM KCl, 2 mM ATP, 5 mM Mg2+, 1-2 h at 25-37 °C; untreated carbon grids; 12 fields a grid scored for pairs of protofilaments; 2D averaging of 1554 particles
[2] = biological target: MreB from Geobacillus stearothermophilus (MreB^Gs), wild type, 6-histidine-tagged (Geobacillus stearothermophilus ATCC 7953); assay: negative-stain electron microscopy; standard conditions with the lipid monolayer but without ATP
[3] = biological target: MreB from Geobacillus stearothermophilus (MreB^Gs), wild type, 6-histidine-tagged (Geobacillus stearothermophilus ATCC 7953); assay: negative-stain electron microscopy; standard conditions (2 mM ATP, 100 mM KCl, MreB 1.34 µM) without lipids, in solution; untreated or glow-discharged grids

MreB from Geobacillus stearothermophilus (MreB^Gs), wild type, 6-histidine-tagged (natural protein)
critical concentration of polymerization [1]: 0.45 µM
percent of EM fields with polymers [1]: 100 % of fields
percent of EM fields with polymers [2]: 4 % of fields
percent of EM fields with polymers [3]: 8 % of fields
